Laboratory results taken from patent US20240043859A1, “HERBICIDE-RESISTANT PROTEIN, AND GENE AND USE THEREOF” (QINGDAO KINGAGROOT CHEMICAL COMPOUND CO., LTD., priority 2020, published 2024).

Assay: Chromogenic reaction of degrading herbicides in bacteria: 2,4-D
Format: cell-based, Escherichia coli
Settings: recombinant E. coli expressing the gene, 2,4-D added to the medium; red = phenols
Experimental: To transform the plasmids to be tested, an AAD12-expressing plasmid and a blank control plasmid pET15b were respectively transformed into the protein expression E. coli BL21(DE3) strains. A monoclone was selected and inoculated in a 10 ml centrifuge tube with 3 ml LB medium, and cultivated at 37° C., 200 rpm for 6-8 hours. The culture medium was added with 0.1 mM IPTG and 2 mM α-ketoglutaric acid, and then 0.5 mM 2,4-D. The temperature was switched to 28° C. and the cultivation continued overnight. In the next morning, 200 μL of each bacteria solution was taken and centrifuged to precipitate thallus, 180 μL of the supernatant was taken and added in a 96-well plate, and 20 μL of borate buffer of pH 10 was added. Then the mixture was added with 2 μL of 8% potassium ferricyanide and mixed well, followed by adding 2 μL of 2% 4-aminoantipyrine, and placed at room temperature for 5 min to observe the color and detect the A510 value.
The bacteria solution also appeared red when 2,4-D was directly added into the medium of AAD12-expressing bacteria, as shown in FIG. 1.
2,4-D was added into these bacteria solutions of AAD gene-expressing recombinant E. coli and cultivation was continued for color development.

| Molecule | Chromogenic reaction of degrading herbicides in bacteria: 2,4-D |
| --- | --- |
| QYD63: AAD-like candidate enzyme; 100.00% identical to US20140179534-0002 (protein, Synthetic polypeptide, QYD63, D63) MSSLELTPLHPLFAAEARGIDIRQPLSPSEVKQINAAMNRYAVLVWRGQPLTGQQQIDFAKAFGPLDLGLKKVFKRPERLEDERLIDISNVDAEGKVARRDSPKNLSNFANQLWHSDSSFQNPRAAYSMLHALVLPSWGGNTEFAELRAAYDALPERTRSEIEGLRAEHYALHTRILLGDEAYTDDQKKAIPPAVWPLAQTHPGSGRKLLFVGVHAREIIGWPVAEGRMFLSDLLEHATRREFVYTHEWQVGDLVMWDNRSTLHRGRRYDIGERRELRRTTIEDVPEATLMAA | Yes |
| QYD64: AAD-like candidate enzyme; 100.00% identical to US20180066275-0002 (protein, Synthetic polypeptide, QYD64, D64) MSLQLKPLHPVFGAEASGLDLTRPLSDADVRAVNAAMNEHAVLVFRGQPLTAQQQLDFAKHFGPLDIGLKRVFKRPERLEDERLIDISNVDAQGNIARRDSPKNLSNFANQLWHSDSSFMNPRAAYSMLHCVIKPSWGGNTEFADLRHAYDTLDERTKAEIQDLKAEHFALHTRILLGDDAYTDDQKKEIPPAVWPLADTHPGSGRKVLFVGVHAREIIGWPVAEARMYLSDLLEHATRRENVYVHEWTPGDLVIWDNRSTLHRGRRYDITERRELRRTTINDTPEAMLMAA | Yes |
| QYD69: AAD-like candidate enzyme; 100.00% identical to US20170211087-0004 (protein, Synthetic polypeptide, QYD69, D69) MAQTTLQITPTGATLGATVTGVHLATLDDAGFAALHAAWLQHALLIFPGQHLSNDQQITFAKRFGAIERIGGGDIVAISNVKADGTVRQHSPAEWDDMMKVIVGNMAWHADSTYMPVMAQGAVFSAEVVPAVGGRTCFADMRAAYDALDEATRALVHQRSARHSLVYSQSKLGHVQQAGSAYIGYGMDTTATPLRPLVKVHPETGRPSLLIGRHAHAIPGMDAAESERFLEGLVDWACQAPRVHAHQWAAGDVVVWDNRCLLHRAEPWDFKLPRVMWHSRLAGRPETEGAALV | Yes |
| QYD67: AAD-like candidate enzyme; 100.00% identical to US20180244732-0002 (protein, Synthetic polypeptide, QYD67, D67) MSPAFDIAPLDATFGAVVTGVHLATLDDAGFAALHAAWLQHALLIFPGQHLSNDQQITFAKRFGAIERIGGGDIVAISNVKADGTVRQHSPAEWDDMMKVIVGNMAWHADSTYMPVMAQGAVFSAEVVPAVGGRTCFADMRAAYDALDEATRALVHQRSARHSLVYSQSKLGHVQQAGSAYIGYGMDTTATPLRPLVKVHPETGRPSLLIGRHAHAIPGMDAAESERFLEGLVDWACQAPRVHAHQWAAGDVVVWDNRCLLHRAEPWDFKLPRVMWHSRIAGDPASETALAH | Yes |
| QYD61: AAD-like candidate enzyme; 100.00% identical to US20190024109-0292 (protein, Synthetic polypeptide, QYD61, D61) MSVVANPLHPLFAAGVEDIDLREALGSTEVREIERLMDEKSVLVFRGQPLSQDQQIAFARNFGPLEGGFIKVNQRPSRFKYAELADISNVSLDGKVAQRDAREVVGNFANQLWHSDSSFQQPAARYSMLSAVVVPPSGGDTEFCDMRAAYDALPRDLQSELEGLRAEHYALNSRFLLGDTDYSEAQRNAMPPVNWPLVRTHAGSGRKFLFIGAHASHVEGLPVAEGRMLLAELLEHATQREFVYRHRWNVGDLVMWDNRCVLHRGRRYDISARRELRRATTLDDAVV | Yes |
| QYD60: AAD-like candidate enzyme; 100.00% identical to US20160002662-0002 (protein, Synthetic polypeptide, QYD60, D60) MSPAFDIAPLDATFGAVVTGVKLADLDDAGWLDLQAAWLEYALLVFPDQHLTREQQIAFARRFGPLEFEMAAISNVRPDGSLRVESDNDDMMKILKGNMGWHADSTYMPVQAKGAVFSAEVVPSVGGQTGFADMRAAYDALDEDLKARVETLQARHSLHYSQSKLGHQTKAADGEYSGYGLHDGPVPLRPLVKIHPETGRKSLLIGRHAHAIPGLEPAESERLLQQLIDFACQPPRIYHHDWAPGDAVLWDNRCLLHQATPWDMTQKRIMWHSRIAGDPASETALAH | Yes |
| QYD66: AAD-like candidate enzyme; 100.00% identical to US20140194292-0002 (protein, Synthetic polypeptide, QYD66, D66) MERHAMSNGKQIVRIEPLPGKTFGAVVTGVRLSELDEDTFSLLYREWLQYALLIFPAQYLTDSQQRDAASKFGCLVEGLEAVEISNLLPTGEVRAAPDDDMMKIIRGNMQWHQDNTYMPLQAKGALFSAKRVPSSGGETGFADMRAAWDALDTETQDRLANLSAYHSLAQSQKNLGEDVKSSDSEYIGYGLDVSTVPRRSLLKIHPETDRKTLAVGRHAFGVTGMAEQESTQFVSDLIDFAVADESRTYHHIWSEGDAILWDNRCLMHRACPWNFSQPRVMLHSRIAGDPSTEAALNS | Yes |
| QYD68: AAD-like candidate enzyme; 100.00% identical to JP2018506305-0002 (protein, Synthetic polypeptide, QYD68, D68) MSPAFDIAPLDATFGAVVTGVKLADLDDAGWLDLQAAWLQHALLIFPGQHLSNDQQITFAKRFGAIERIGGGDIVAISNVKADGTVRQHSPAEWDDMMKVIVGNMAWHADSTYMPVMAQGAVFSAEVVPAVGGRTCFADMRAAYDALDEATRALVHQRSARHSLVYSQSKLGHVQQAGSAYIGYGMDTTATPLRPLVKVHPETGRPSLLIGRHAHAIPGMDAAESERFLEGLVDWACQAPRVHAHQWAAGDVVVWDNRCLLHRAEPWDFKLPRVMWHSRLAGRPETEGAALV | Yes |
| QYD65: AAD-like candidate enzyme; 100.00% identical to CN103013939-0002 (protein, Synthetic polypeptide, QYD65, D65) MAIAIRQLHPHFVGEVSGVDLRHPLTRDEVAELQAAIDHYAVLVFHDQDIGDEQQLAFALNFGDREKARGGTVTKKEDYRLTTGLNDVSNLGKDGKPLPPDHRTHLFNLGNCLWHSDSSFRPIPAKYSILSARIVNPKGGNTEFADMRAAYDALDEQTKAEIDDLVSEHSLMYSRGSLGFLDYTDEEKKMFKPVRQRLVRTHPAHGRKSLYLSSHAGAVVGMSMPEGRLLLRDLTEHATQPEFVYVHKWRLHDLVMWDNRQTVHRVRRYDQSQPRDMRRATVAGTEPTVAQQAAE | Yes |
